# Measured values: the supplement of paper PMC9170038
# Tested on: MS2 coat protein
# Assay: apparent KD of MS2 coat protein; designed switch direction (-1 OFF switch, 1 ON switch): -1; higher = weaker reporter binding
# In short: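 The buffer was Tris-HCl pH 7.5 with KCl, MgCl2, BSA, DTT, tRNA and Tween-20. In it, SNAP-549-labelled MS2 coat protein was titrated in doubling steps from 0.7 or 1.5 nM to 3 µM over chip-bound RNA switches transcribed by stalled E. coli RNA polymerase on Illumina chips. Apparent KD is the per-design median over clusters of curve fits to normalised fluorescence.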
# [1] = Eterna round: R95, input ligand: FMN 200 uM
# [2] = Eterna round: R95, input ligand: microRNA oligo, concentration not stated
# [3] = Eterna round: R95, input ligand: none
# [4] = input ligand: microRNA oligo, concentration not stated
Sequence,apparent KD of MS2 coat protein (input ligand: FMN 200 uM),apparent KD of MS2 coat protein (input ligand: none),apparent KD of MS2 coat protein [1],apparent KD of MS2 coat protein [2],apparent KD of MS2 coat protein [3],apparent KD of MS2 coat protein [4]
"GAUCAUGCAGGAUAUACAGUAUCCAUGAAAACAUGGAUCAAACAUGAGGAUCACCCAUGUAGAAGGGCAUGAUC [Omei Ex2 A23] (Eterna round: R97, puzzle: Exclusion 2)",19.1 nM,17.9 nM,,,,
"GAUCAUGCAGGAUAUACAGUAUCCAUGAAAACAUGGAUCUAACAUGAGGAUCACCCAUGUAGAAGGGCAUGAUC [Omei Ex2 A24] (Eterna round: R97, puzzle: Exclusion 2)",17.9 nM,19 nM,,,,
"GAUCAUGCAGGAUAUACAGUUUCCAUGAAAACAUGGACCUCACAUGAGGAUCACCCAUGUAGAAGGGCAUGAUC [Omei Ex2 A27] (Eterna round: R97, puzzle: Exclusion 2)",982 nM,443 nM,,,,
"GAUCAUGCAGGAUAUACAUGGAACAUGUAAUCAUGAAUUUCACAUGAGGAUCACCCAUGUAGAAGGGCAUGAUC [Omei Ex2 A14] (Eterna round: R97, puzzle: Exclusion 2)",151 nM,2740 nM,,,,
"GAUCAUGCAGGAUAUACAUGGAUCAUGAAAACAUGAAUUUCACAUGAGGAUCACCCAUGUAGAAGGGCAUGAUC [Omei Ex2 A11] (Eterna round: R97, puzzle: Exclusion 2)",13.9 nM,293 nM,,,,
"GAUCAUGCAGGAUAUACAUUUUCCAUGAAAACAUGGUCCUCACAUGAGGAUCACCCAUGUAGAAGGGCAUGAUC [Omei Ex2 A30] (Eterna round: R97, puzzle: Exclusion 2)",37.6 nM,855 nM,,,,
"GAUCGCAUAGUCAGGAUAUCGAAGUAUCGGGACCGCGAGAAGGGACAUGAGGAUCACCCAUGUUUCAUGGGAAG [Riesaratce] (Eterna round: R97, puzzle: Brourd's mod of Exclusion 4)",182 nM,113 nM,,,,
"GAUCGGACGUGGUCAGGUAACAUGAGGAUCACCCAUGUAGGUCUAGGAACAAGCUUUUUGAAAGCUCGUCUUAUAUA [JR_SV3TOV1_Sub057] (puzzle: Sensor v3, turn-off variant 1)",,,44.8 nM,25.5 nM,49.3 nM,
GAUCGUUUAGAGGAUAUCGUGCUAAACAUUACAUGAGAAGGCUAGACAUGAGGAUCACCCAUGUAUACUCGUGA [Exclusion 6 - 8:a] (puzzle: Exclusion 6),,,23.7 nM,14.7 nM,18.7 nM,
"GAUCUACAUGAGGAUCACCCAUGUAAGGAUAUCUACAUUGAAGCUUCGGCUUCAAUGUAGAGAAGGUACAAUUA [E1/10-B1] (Eterna round: R97, puzzle: Exclusion 1)",40.7 nM,27.9 nM,,,,
"GAUCUGACAGGAUAUACAUGAGGAUCACCCAUGUGCGAGCUAGCGAAAGCUAGCUCAGGUAGAAGGGUCAGAUC [Ex3 dot plot directed] (Eterna round: R96, puzzle: Exclusion 3)",15.1 nM,15.7 nM,,,,13.1 nM
GAUCUGACAGGAUAUACAUGAGGAUCACCCAUGUGCGAGCUAGCGAAAGCUAGCUCAGGUAGAAGGGUCAGAUC [Ex3 dot plot directed] (puzzle: Exclusion 3),,,,11.6 nM,,
GAUCUGGCAGGAUAUACAUGAGGAUCACCCAUGUGCGAGCUAGCGAAAGCUAGCUCAGGUAGAAGGGUCAGAUC [Ex3 dot plot directed v1] (puzzle: Exclusion 3),,,,10.8 nM,,
"GAUCUGUGAGGAUAUUUAUCGUAGUGCGUGUAGCCUGCGCCGGAGAAGGCACAUGAGGAUCACCCAUGUUCUAA [Eternabot (L1) Solution 45] (Eterna round: R97, puzzle: Exclusion 4)",57.2 nM,51.8 nM,,,,
GAUGAGGUAGGAUAUACGAGAAUAUAGGGUAGAUAUAUAACACAUGAGGAUCACCCAUGUAGAAGGACCAGUAG [Mat - Exclusion 2 - Mod of my Tesla design - D70] (puzzle: Exclusion 2),,,,33.6 nM,,
"GAUGCUCCGGUCAGGAUAUCAGGUGCAAGCACCGGUGAGAAGGGACAUGAGGAUCACCCAUGUAAAAUAAGACC [Aenxeza] (Eterna round: R97, puzzle: Brourd's mod of Exclusion 4)",40.7 nM,24 nM,,,,
GAUGGACAUGAGGAUCACCCAUGUAAGGAUAUACGGUUGGUAGAGAGAGAGAGAAAUGGUAGAAGGUACGGAAA [JR_Exclu1_Sub051] (puzzle: Exclusion 1),,,36.5 nM,46.6 nM,50.3 nM,
"GAUGUGGGUUUCCGGAGUAACAUGAGGAUCACCCAUGUAGAAGUUGGAGGGAUAAUGCUUUUUGCUCGUUACACGUG [JR_SV3TOV1_Sub054] (puzzle: Sensor v3, turn-off variant 1)",,,404 nM,323 nM,538 nM,
"GAUGUGGGUUUUCAGAGUAACAUGAGGAUCACCCAUGUAGAAGUUGAAGGUAUCAAGCGAAUGGCUCGUCAAAUGUG [JR_SV3TOV1_Sub049] (puzzle: Sensor v3, turn-off variant 1)",,,229 nM,182 nM,287 nM,
"GAUGUGUUAGGAUAUCGAAGUAUCUGUGCUGUGGCGAAUCACGAGAAGGAACAUGAGGAUCACCCAUGUGGUUG [Eternabot (L2) Solution 34] (Eterna round: R97, puzzle: Exclusion 4)",68.9 nM,63.9 nM,,,,
"GAUUAACAUGAGGAUCACCCAUGUGAGGAUAUGGACUUGCCCACUUACCCUUUAGAGUCUAGAAGGCGCAUUUC [1986#31] (Eterna round: R97, puzzle: Exclusion 1)",23.1 nM,20.9 nM,,,,
"GAUUACAACGAAGACAAGCACAUGAGGAUCACCCAUGUGUAAAAUCGAGUGGGCCCACUCGUACCUCAACACCGUCU [JR_Sensorv2_tov_Sub304] (Eterna round: R96, puzzle: Sensor v2, turn-off variant)",18.9 nM,19.8 nM,,,,15.8 nM
"GAUUAUGCGAGCUUUAGGGACAUGAGGAUCACCCAUGUUCGUCUUAUUAAUCUAGGUACACUAACAUACCUAAAUCU [JMF 10] (puzzle: Sensor v3, turn-off variant 1)",,,23.9 nM,37.6 nM,21.4 nM,
